Test results: US20140155466

Assays:
Test in all cases: cell_activity
[1] = test system: Human autoantibodies against beta1-adrenergic receptor (beta1-receptor AAB, 2nd loop) (Homo sapiens)
[2] = test system: Human autoantibodies against alpha1-adrenergic receptor (alpha1-receptor AAB) (Homo sapiens); conditions: pulmonary hypertension patient 2, 5.17 without aptamer; 100 nM
[3] = test system: Human autoantibodies against beta2-adrenergic receptor (beta2-receptor AAB) (Homo sapiens); conditions: 100 nM
[4] = test system: Human autoantibodies against endothelin receptor type A (ETA-AAB) (Homo sapiens); conditions: pulmonary hypertension patient 2, -4.8 without aptamer
[5] = test system: Human autoantibodies against muscarinic M2 receptor (M2-receptor AAB) (Homo sapiens); conditions: -3.67 without aptamer, 100 nM
[6] = test system: Human alpha1/beta2-receptor autoantibodies (Alzheimer patient) (Homo sapiens); conditions: Alzheimer patient 1, 8.0 without aptamer; 100 nM
[7] = test system: Human autoantibodies against PAR receptor (PAR-receptor AAB) (Homo sapiens); conditions: Raynaud patient 1, 7.33 without aptamer; 100 nM
[8] = test system: Human autoantibodies against angiotensin II AT1 receptor (AT1-receptor AAB) (Homo sapiens); conditions: malignant hypertension, 7.83 without aptamer; kidney transplant 6.17 to 0.17; 100 nM
[9] = test system: Human autoantibodies against beta1-adrenergic receptor (beta1-receptor AAB, 1st loop) (Homo sapiens); conditions: DCM patient 1, 6.33 without aptamer; 100 nM

Sequence “GGTTGGTGTGGTTGG [5'-FITC-thrombin-aptamer]” has an activity (% neutralization) ([1]; loop not stated, 100 nM FITC-aptamer) of 50.

In the case of “CGCCTAGGTTGGGTAGGGTGGTGGCG [NU172 (ARC2172)]”, the activity (delta beats/15 sec) [2] is reported as 2, the activity (delta beats/15 sec) ([1]; peripartum cardiomyopathy, 6.33 without aptamer, 100 nM, partial) is reported as 4 and the activity (delta beats/15 sec) ([3]; glaucoma patient 1, 7.33 without aptamer, Chagas megacolon patient 6.17 to 2.0) is reported as 5.33. It also gave an activity (delta beats/15 sec) ([4]; sign as printed) of 2 and an activity (delta beats/15 sec) ([5]; sign as printed) of 3.

Work on “GGTTGGTGTGGTTGG [3'-dT cap thrombin-aptamer]” yielded an activity (delta beats/15 sec) ([1]; 3'-dT cap, DCM, 6.0 without aptamer, 100 nM) of 0 and an activity (delta beats/15 sec) ([3]; 3'-dT cap, Alzheimer, 5.17 without aptamer) of 0.

Work on “GGTTGGTGTGGTTGG [thrombin-aptamer ARC183]” yielded an activity (delta beats/15 sec) [6] of 0, an activity (delta beats/15 sec) [7] of 0.17 and an activity (delta beats/15 sec) [2] of 0.33. The activity (delta beats/15 sec) [8] was 0.67, the activity (delta beats/15 sec) [9] was -0.17 and the activity (delta beats/15 sec) ([1]; DCM patient 1, 5.33 without aptamer, 100 nM aptamer, rat cardiomyocyte bioassay) was 0.17. The activity (delta beats/15 sec) ([3]; glaucoma patient 1, 7.33 without aptamer) was 0.33, the activity (delta beats/15 sec) ([4]; 100 nM) was 0.33 and the activity (delta beats/15 sec) ([5]; Chagas cardiomyopathy) was 0.5.
